Response (% of total mycSsb1) and ribosome-binding, percent of the mycSsb1 control data for 5 substances are collected here from PMC5123055.

In experiment [1] the target is ribosome (S. cerevisiae). The experiment can be described thus: quantitative ribosome binding assay (ribosomes isolated from cell extract, immunoblot with αmyc). The following applies: ribosomes isolated under low-salt conditions; parent: 45.4. In general terms: Immunoblotting shows a protein as a band on a membrane.
The target of experiment [2] is ribosome (S. cerevisiae) (S. cerevisiae (endogenous in yeast extract)). Kind of experiment: co-sedimentation; ribosome binding assay: cell extract (cycloheximide) spun through a low-salt sucrose cushion (25% sucrose, 20 mM Hepes/KOH pH 7.4, 120 mM potassium acetate, 2 mM magnesium acetate), 400,000 g, 4 °C, 25 min; immunoblot of supernatant and ribosomal pellet; strains: wild type, Δzuo1Δssz1, RAC-H128Q, Δssb1Δssb2 with Ssb1 variants.

For “N-terminally myc-tagged Ssb1 (mycSsb1) (from UniProt P11484) K567E; R568E; K603D; R604D”, in experiment [1], the response (% of total mycSsb1) stood at 3.

For “N-terminally myc-tagged Ssb1 (mycSsb1) (from UniProt P11484) K567E; R568E; R596D; K597D; K603D; R604D”, the response (% of total mycSsb1) in experiment [1] is 1.9. In the case of “mycSsb1 D1 (R596D/K597D) (from UniProt P11484 1-613) (natural protein)”, the ribosome-binding, percent of the mycSsb1 control in experiment [2] is under 50%. Same read-out and setting: the value for “mycSsb1 D2 (K603D/R604D) (from UniProt P11484 1-613) (natural protein)” was under 50%; that for “mycSsb1 LBC (K567E/R568E) (from UniProt P11484 1-613) (natural protein)” was under 50%.
